Patent US20200277406A1 (ROCHE DIAGNOSTICS OPERATIONS, published 2020)
Where “and” joins values, the source holds several entries; their conditions need not be identical. Equal values may be shown once.

T1: pIGF-1R(1340-1366)[1346-pTyr]amid (phosphotyrosine at 1346 (1346-pTyr); C-terminal amide)
T1 construct: also called pIGF-1R peptide; phosphorylated IGF-1R peptide (free in solution)
T1 peptide: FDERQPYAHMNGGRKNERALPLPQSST

T2: IGF-1R(1340-1366)amid (C-terminal amide)
T2 construct: also called IGF-1R peptide; non-phosphorylated IGF-1R peptide (free in solution)
T2 peptide: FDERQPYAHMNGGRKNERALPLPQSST

T3: IGF-1R(1340-1366)[1346-pTyr; Glu(Bi-PEG-1340]amid (not fully specified; phosphotyrosine at 1346 (1346-pTyr); biotin-PEG linker bound via glutamic acid corresponding to position 1340; C-terminal amide)
T3 construct: also called pIGF-1R peptide; phosphorylated IGF-1R peptide (biotinylated)
T3 peptide: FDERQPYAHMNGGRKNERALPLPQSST

T4: IGF-1R(1340-1366); Glu(Bi-PEG-1340]amid (not fully specified; biotin-PEG linker bound via glutamic acid corresponding to position 1340; C-terminal amide)
T4 construct: also called IGF-1R peptide; non-phosphorylated IGF-1R peptide (biotinylated)
T4 peptide: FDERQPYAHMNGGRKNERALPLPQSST


Assays:
[1] = molecular target: T1, pIGF-1R(1340-1366)[1346-pTyr]amid; assay: SPR (Biacore 3000, 25 C), dual binder on biotinylated linker on SA chip, peptide in solution; T40-Bi linker (spacer T20-Biotin-dT-T20)
Protocol: (§1) A BIACORE™ 3000 instrument (GE Healthcare) was used with a BIACORE™ SA sensor mounted into the system at T=25° C. The system was preconditioned at 100 μl/min with 3 ×1 min injection of 1 M NaCl in 50 mM NaOH and 1 min 10 mM HCl.
(§2) 124 RU amino-PEO-biotin were captured on the reference flow cell 1.
(§3) As a control, buffer was injected instead of the ssFabs.

IGF-1R(1340-1366)amid [2] = molecular target: T2, IGF-1R(1340-1366)amid; assay: SPR (Biacore 3000, SA sensor, 25 °C): ssFab′ hybridised on the captured biotinylated T40-Bi linker (linker 10), peptide injected in solution
Protocol: as §2, §3
(§4) The dissociation was monitored at 50 μl/min for 5.3 min. The system was regenerated after each concentration step with a 12 sec pulse of 250 mM NaOH and was reloaded with ssFab′ ligand.

[3] = molecular target: T1, pIGF-1R(1340-1366)[1346-pTyr]amid; assay: as above
Protocol: as §2, §3, §4

[4] = molecular target: T3, IGF-1R(1340-1366)[1346-pTyr; …; assay: SPR (Biacore 2000, 25 C), immobilised biotinylated peptide, 100 nM ssFab′ in solution
Protocol: (§5) Subsequently biotinylated peptides were captured on the SA surface in the respective flow cells. […] Finally all flow cells were saturated with d-biotin.
(§6) Report points were set at the end of the analyte association phase (Binding Late, BL) and at the end of the analyte dissociation phase (Stability Late, SL) to monitor the response unit signal heights of each interaction. The dissociation rates kd (1/s) were calculated according to a linear 1:1 Langmuir fit using the BIACORE™ evaluation software 4.1. The complex halftimes in minutes were calculated upon the formula ln(2)/(60*kd).

[5] = molecular target: T4, IGF-1R(1340-1366); Glu(Bi-PEG-1340]amid; assay: as above
Protocol: as §5, §6

IGF-1R(1340-1366)amid [6] = molecular target: T2, IGF-1R(1340-1366)amid; assay: SPR (Biacore 3000, SA sensor, 25 °C): ssFab′ hybridised on the captured biotinylated T0-Bi 37-mer linker, peptide injected in solution
Protocol: as §2, §3, §4

[7] = molecular target: T1, pIGF-1R(1340-1366)[1346-pTyr]amid; assay: as above
Protocol: as §2, §3, §4

[8] = molecular target: T1, pIGF-1R(1340-1366)[1346-pTyr]amid; assay: SPR (Biacore 3000, 25 C), dual binder on biotinylated linker on SA chip, peptide in solution; T0 linker (no thymidine spacer)
Protocol: as §1, §2, §3

Kd [1]	Kd (IGF-1R(1340-1366)amid [2])	t1/2 diss (IGF-1R(1340-1366)amid [2])	Kd [3]	T1/2 dis [4]	T1/2 dis [5]	Kd (IGF-1R(1340-1366)amid [6])	t1/2 diss (IGF-1R(1340-1366)amid [6])	Kd [7]	t1/2 diss [7]	Kd [8]	Binder
0.01 nM	0.973 nM and 1 nM	4.3 min	0.0125 nM	–	–	–	–	–	–	–	T40 dual binding agent (ssFab′ 8.1.2 and ssFab′ 1.4.168 on the T40-Bi linker, linker 10) (bispecific antibody, V domains shown, Fab′ hinge cysteine coupled to ssDNA) VH 1: EVQLQQSGPALVKPGASVKMSCKASGFTFTSYVIHWVKQKPGQGLEWIGYLNPYNDNTKYNEKFKGKATLTSDRSSSTVYMEFSSLTSEDSAVYFCARRGIYAYDHYFDYWGQGTSLTVSS VL 1: QIVLTQSPAIMSASPGEKVTLTCSASSSVNYMYWYQQKPGSSPRLLIYDTSNLASGVPVRFSGSGSVTSYSLTISRMEAEDAATYYCQQWSTYPLTFGAGTKLELK VH 2: QCDVKLVESGGGLVKPGGSLKLSCAASGFTFSDYPMSWVRQTPEKRLEWVATITTGGTYTYYPDSIKGRFTISRDNAKNTLYLQMGSLQSEDAAMYYCTRVKTDLWWGLAYWGQGTLVTVSA VL 2: QLVLTQSSSASFSLGASAKLTCTLSSQHSTYTIEWYQQQPLKPPKYVMELKKDGSHTTGDGIPDRFSGSSSGADRYLSISNIQPEDESIYICGVGDTIKEQFVYVFGGGTKVTVLG
–	1.1 nM and 1 nM	3 min	2.14 nM and 2 nM	3 min	3 min	1.35 nM and 1 nM	4 min	2.59 nM and 3 nM	4 min	–	ssFab′ 1.4.168 (Fab, V domains shown, hinge-region cysteine of the Fab′ coupled via maleimide to a fluorescein-labelled ssDNA oligonucleotide, Fab′ of murine mAb 1.4.168 (pepsin cleavage, cysteamine reduction), 1:1 conjugated to ssDNA; also called fluorescein-ssFab′ 1.4.168; ssFab′ 1.004.168) VH: DVKLVESGGGLVKPGGSLKLSCAASGFTFSDYPMSWVRQTPEKRLEWVATITTGGTYTYYPDSIKGRFTISRDNAKNTLYLQMGSLQSEDAAMYYCTRVKTDLWWGLAYWGQGTLVTVSA VL: QLVLTQSSSASFSLGASAKLTCTLSSQHSTYTIEWYQQQPLKPPKYVMELKKDGSHTTGDGIPDRFSGSSSGADRYLSISNIQPEDESIYICGVGDTIKEQFVYVFGGGTKVTVLG
–	–	–	–	–	–	1.2 nM and 1 nM	5 min	0.0344 nM	–	0.03 nM	T0 dual binding agent (ssFab′ 8.1.2 and ssFab′ 1.4.168 on the T0-Bi 37-mer linker) (bispecific antibody, V domains shown, Fab′ hinge cysteine coupled to ssDNA) VH 1: EVQLQQSGPALVKPGASVKMSCKASGFTFTSYVIHWVKQKPGQGLEWIGYLNPYNDNTKYNEKFKGKATLTSDRSSSTVYMEFSSLTSEDSAVYFCARRGIYAYDHYFDYWGQGTSLTVSS VL 1: QIVLTQSPAIMSASPGEKVTLTCSASSSVNYMYWYQQKPGSSPRLLIYDTSNLASGVPVRFSGSGSVTSYSLTISRMEAEDAATYYCQQWSTYPLTFGAGTKLELK VH 2: QCDVKLVESGGGLVKPGGSLKLSCAASGFTFSDYPMSWVRQTPEKRLEWVATITTGGTYTYYPDSIKGRFTISRDNAKNTLYLQMGSLQSEDAAMYYCTRVKTDLWWGLAYWGQGTLVTVSA VL 2: QLVLTQSSSASFSLGASAKLTCTLSSQHSTYTIEWYQQQPLKPPKYVMELKKDGSHTTGDGIPDRFSGSSSGADRYLSISNIQPEDESIYICGVGDTIKEQFVYVFGGGTKVTVLG
